Assay results from patent publication US20130089497A1 (Genentech, published 2013).

T1: gD tagged human FcRH3 on SVT2 cells (human, UniProt Q96P31 18-734)
T1 construct: whole, on cells; also called huFcRH3; not shown: gD tag; the construct for this FcRH is not described
T1 sequence (looked up): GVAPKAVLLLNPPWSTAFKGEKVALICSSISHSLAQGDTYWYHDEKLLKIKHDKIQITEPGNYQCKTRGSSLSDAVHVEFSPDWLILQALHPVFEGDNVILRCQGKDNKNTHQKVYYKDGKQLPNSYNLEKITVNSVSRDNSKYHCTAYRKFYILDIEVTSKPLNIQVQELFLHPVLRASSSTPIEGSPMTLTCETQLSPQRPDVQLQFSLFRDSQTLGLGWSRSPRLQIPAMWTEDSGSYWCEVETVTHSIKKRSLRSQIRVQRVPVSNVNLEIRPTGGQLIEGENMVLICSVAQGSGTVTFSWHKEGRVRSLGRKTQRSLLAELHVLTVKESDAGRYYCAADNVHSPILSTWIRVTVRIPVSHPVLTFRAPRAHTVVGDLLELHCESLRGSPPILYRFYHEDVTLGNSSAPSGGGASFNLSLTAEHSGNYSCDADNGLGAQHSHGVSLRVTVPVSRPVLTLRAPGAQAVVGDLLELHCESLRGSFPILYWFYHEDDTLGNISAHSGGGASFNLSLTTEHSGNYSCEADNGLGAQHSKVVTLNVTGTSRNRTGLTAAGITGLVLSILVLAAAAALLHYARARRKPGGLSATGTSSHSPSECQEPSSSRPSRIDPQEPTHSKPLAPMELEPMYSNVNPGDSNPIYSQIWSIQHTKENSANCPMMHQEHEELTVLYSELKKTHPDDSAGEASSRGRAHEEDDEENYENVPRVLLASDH

T2: gD tagged human FcRH6 on SVT2 cells (human, UniProt Q6DN72 20-434)
T2 construct: whole, on cells; also called huFcRH6; not shown: gD tag; the construct for this FcRH is not described
T2 sequence (looked up): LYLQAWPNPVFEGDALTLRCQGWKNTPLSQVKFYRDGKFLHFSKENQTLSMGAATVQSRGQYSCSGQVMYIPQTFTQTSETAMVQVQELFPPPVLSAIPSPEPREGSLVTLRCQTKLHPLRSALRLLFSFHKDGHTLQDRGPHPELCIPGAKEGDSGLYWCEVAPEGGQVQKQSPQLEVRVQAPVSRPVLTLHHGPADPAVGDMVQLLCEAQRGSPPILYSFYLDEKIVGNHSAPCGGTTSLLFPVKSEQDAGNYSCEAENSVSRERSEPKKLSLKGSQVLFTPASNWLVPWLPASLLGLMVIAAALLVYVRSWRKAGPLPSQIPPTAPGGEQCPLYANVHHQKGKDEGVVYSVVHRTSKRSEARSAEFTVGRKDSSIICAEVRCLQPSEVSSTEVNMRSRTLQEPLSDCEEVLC

T3: gD tagged human FcRH2 on SVT2 cells (human, UniProt Q96LA5 20-508)
T3 construct: whole, on cells; also called huFcRH2; not shown: gD tag; the construct for this FcRH is not described
T3 sequence (looked up): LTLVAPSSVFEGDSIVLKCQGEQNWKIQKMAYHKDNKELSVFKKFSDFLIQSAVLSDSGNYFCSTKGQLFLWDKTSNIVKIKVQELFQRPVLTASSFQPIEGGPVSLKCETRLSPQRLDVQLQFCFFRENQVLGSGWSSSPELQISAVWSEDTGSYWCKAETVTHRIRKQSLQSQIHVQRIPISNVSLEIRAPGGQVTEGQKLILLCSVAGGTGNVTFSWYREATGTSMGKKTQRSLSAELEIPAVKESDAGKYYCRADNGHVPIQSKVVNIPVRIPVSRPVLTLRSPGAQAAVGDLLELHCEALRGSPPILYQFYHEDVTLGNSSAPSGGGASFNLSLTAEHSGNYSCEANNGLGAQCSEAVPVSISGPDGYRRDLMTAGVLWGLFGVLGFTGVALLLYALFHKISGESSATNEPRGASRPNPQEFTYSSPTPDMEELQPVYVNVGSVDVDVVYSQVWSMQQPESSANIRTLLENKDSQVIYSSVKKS

T4: gD tagged human FcRH1 on SVT2 cells (human, UniProt Q96LA6 17-429)
T4 construct: whole, on cells; also called huFcRH1; not shown: gD tag
T4 sequence (looked up): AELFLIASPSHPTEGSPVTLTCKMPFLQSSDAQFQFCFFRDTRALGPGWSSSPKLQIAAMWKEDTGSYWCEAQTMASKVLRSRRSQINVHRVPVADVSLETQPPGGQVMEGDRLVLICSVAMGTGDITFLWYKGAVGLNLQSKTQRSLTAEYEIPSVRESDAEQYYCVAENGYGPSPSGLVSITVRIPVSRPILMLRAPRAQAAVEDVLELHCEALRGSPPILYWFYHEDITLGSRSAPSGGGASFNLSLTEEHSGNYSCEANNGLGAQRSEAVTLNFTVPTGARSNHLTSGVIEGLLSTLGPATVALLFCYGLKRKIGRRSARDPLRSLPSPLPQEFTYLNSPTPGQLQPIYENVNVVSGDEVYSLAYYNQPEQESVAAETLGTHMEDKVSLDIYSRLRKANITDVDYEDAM

T5: gD tagged human FcRH4 on SVT2 cells (human, UniProt Q96PJ5 20-515)
T5 construct: whole, on cells; also called huFcRH4; IRTA1; not shown: gD tag; the construct for this FcRH is not described
T5 sequence (looked up): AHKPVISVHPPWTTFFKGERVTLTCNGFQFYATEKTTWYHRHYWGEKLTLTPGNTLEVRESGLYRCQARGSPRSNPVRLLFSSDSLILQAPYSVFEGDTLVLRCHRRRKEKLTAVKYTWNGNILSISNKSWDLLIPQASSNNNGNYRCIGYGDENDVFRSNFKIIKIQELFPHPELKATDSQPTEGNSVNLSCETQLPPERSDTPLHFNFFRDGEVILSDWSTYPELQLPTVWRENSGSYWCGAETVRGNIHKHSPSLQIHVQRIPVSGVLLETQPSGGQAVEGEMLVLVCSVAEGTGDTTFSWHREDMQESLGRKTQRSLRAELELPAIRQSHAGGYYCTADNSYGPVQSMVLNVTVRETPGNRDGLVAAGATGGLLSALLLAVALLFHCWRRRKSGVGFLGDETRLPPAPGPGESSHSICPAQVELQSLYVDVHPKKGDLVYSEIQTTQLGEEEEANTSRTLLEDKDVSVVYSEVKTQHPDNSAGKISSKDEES

T6: cynomolgus FcRH5 on stably transfected SVT2 cells (cynomologous monkey)
T6 construct: also called cyno FcRH5; cynoFcRH5
T6 chain: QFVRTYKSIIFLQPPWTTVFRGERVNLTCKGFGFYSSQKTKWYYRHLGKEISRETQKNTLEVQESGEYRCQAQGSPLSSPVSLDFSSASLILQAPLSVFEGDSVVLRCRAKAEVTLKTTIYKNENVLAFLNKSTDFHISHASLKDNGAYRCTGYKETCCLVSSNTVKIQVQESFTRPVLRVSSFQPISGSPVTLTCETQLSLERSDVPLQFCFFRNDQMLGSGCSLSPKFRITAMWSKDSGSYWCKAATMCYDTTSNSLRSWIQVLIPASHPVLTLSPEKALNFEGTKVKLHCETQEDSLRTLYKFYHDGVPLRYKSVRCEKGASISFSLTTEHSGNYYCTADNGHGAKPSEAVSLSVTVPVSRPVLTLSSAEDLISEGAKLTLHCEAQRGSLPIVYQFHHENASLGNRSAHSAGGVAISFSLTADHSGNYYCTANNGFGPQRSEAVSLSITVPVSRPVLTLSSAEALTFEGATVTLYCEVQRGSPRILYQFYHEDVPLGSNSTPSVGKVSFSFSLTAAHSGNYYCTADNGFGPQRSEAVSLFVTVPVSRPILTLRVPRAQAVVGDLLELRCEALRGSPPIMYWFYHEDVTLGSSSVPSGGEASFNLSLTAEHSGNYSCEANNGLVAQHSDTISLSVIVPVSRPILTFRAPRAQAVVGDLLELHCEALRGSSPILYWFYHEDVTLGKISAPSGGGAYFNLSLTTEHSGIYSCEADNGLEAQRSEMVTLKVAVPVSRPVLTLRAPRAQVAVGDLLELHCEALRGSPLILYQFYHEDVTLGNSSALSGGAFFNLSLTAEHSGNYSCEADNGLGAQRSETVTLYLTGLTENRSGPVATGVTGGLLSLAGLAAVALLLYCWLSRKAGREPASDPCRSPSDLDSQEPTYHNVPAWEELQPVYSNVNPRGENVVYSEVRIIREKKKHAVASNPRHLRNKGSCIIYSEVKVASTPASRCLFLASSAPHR


Tests used:
[1] = biological target: T1, gD tagged human FcRH3 on SVT2 cells; assay: FACS, SVT2.MSCV.gD.FcRH3 cells, PE mu anti-human IgG
[2] = biological target: T2, gD tagged human FcRH6 on SVT2 cells; assay: FACS, SVT2.MSCV.gD.FcRH6 cells, PE mu anti-human IgG
[3] = biological target: T3, gD tagged human FcRH2 on SVT2 cells; assay: FACS, SVT2.MSCV.gD.FcRH2 cells, PE mu anti-human IgG
[4] = biological target: T4, gD tagged human FcRH1 on SVT2 cells; assay: FACS, SVT2.MSCV.gD.FcRH1 cells, PE mu anti-human IgG
[5] = biological target: T5, gD tagged human FcRH4 on SVT2 cells; assay: FACS, SVT2.MSCV.gD.FcRH4 cells, PE mu anti-human IgG
[6] = biological target: T6, cynomolgus FcRH5 on stably transfected …; assay: Scatchard analysis: 0.5 nM 125I-labeled antibody competed with the unlabeled antibody (50 to 0.02 nM) on SVT2.cyFcRH5 cells, 4 h at 4 C; St. Error 0.091
Protocol: To further determine binding of the FcRH5 murine antibodies and IgG clones, binding of iodinated IgG variants to OPM2 cells expressing human FcRH5 and SVT2 cells expressing cynomologous FcRH5, Scatchard analysis was performed (Table 9A).
For Scatchard analysis, 0.5 nM I¹²⁵ labeled murine or IgG clone anti-FcRH5 was competed against unlabeled murine or IgG clone anti-FcRH5, respectively, ranging from 50 to 0.02 nM (12 step 1:2 serial dilution) in the presence of a transfected OPM2 line stably expressing human-FcRH5 and a transfected SVT2 line stably expressing cynomologous-FcRH5. After a four hour incubation at 4° C., cells were washed and cell pellet counts were read by a gamma counter (1470 WIZARD Automatic Gamma Counter; Perkin Elmer, Walthem, Mass.). All points were done in triplicate and counted for 10 minutes. The average CPM was used for Kd calculation using the New Ligand (Genentech, South San Francisco, Calif.) program.

Row | Binder | binding result [1] | binding result [2] | binding result [3] | binding result [4] | binding result [5] | Kd [6]
1 | chimeric anti-human FcRH5 antibody 7D11 (antibody, human IgG1, kappa, Mouse/human chimeric IgG1 kappa expressed in 293 cells; also called ch7D11; Ch anti-FcRH5 (7D11)) heavy: not shown light: DILLTQSPAILSVSPGERVSFSCRSSQSIGTNIHWYQQRTNGSPRLLIKFASESLSGIPSRFSGSGSGTDFTLSINSVESEDFADYYCQQSNSWPLTFGAGTKVEIKRTVAAPSVFIFPPSDEQLKSGTASVVCLLNNFYPREAKVQWKVDNALQSGNSQESVTEQDSKDSTYSLSSTLTLSKADYEKHKVYACEVTHQGLSSPVTKSFNRGEC | no binding (tested: 1.0 ug per about 10^6 cells (p-1120)) | no binding (tested: 1.0 ug per about 10^6 cells (p-1120)) | no binding (tested: 1.0 ug per about 10^6 cells (p-1120)) | no binding (tested: 1.0 ug per about 10^6 cells (p-1120)) | no binding (tested: 1.0 ug per about 10^6 cells (p-1120)) | 
2 | chimeric anti-human FcRH5 antibody 13G9 (antibody, human IgG1, kappa, Expressed in 293 cells; also called ch13G9; chMAFcRH5 (13G9)) heavy: not shown light: DIVMTQSQKIMSTSVGDRVNVTCKASQNVGSNVAWYHQKPGQSPKALIYSASYRYSGVPDRFTGSGSGTDFTLTISNVQSEDLAEYFCQQYKTWTFGGGTKLEIKRTVAAPSVFIFPPSDEQLKSGTASVVCLLNNFYPREAKVQWKVDNALQSGNSQESVTEQDSKDSTYSLSSTLTLSKADYEKHKVYACEVTHQGLSSPVTKSFNRGEC |  |  |  |  |  | 1.08 nM
